# From paper PMC7153833
# How the values were obtained:
# [1] = molecular target: hyper-galactosylated (G2 F) variant of the mAb; test: native MS
# [2] = molecular target: α-2,6-sialic acid variant (ST6) of the mAb; test: native MS
substance,measurement,setting,value
recombinant Human Fc gamma RIIIa/CD16a (V176) protein (from UniProt P08637 17-208) (receptor),fold change of binding affinity against G0 F,[1],1.5 fold
same,fold change of binding affinity against ST3,[2],1.72 fold
